# Experimental data published in the supplement of paper PMC12783771.
# ± gives the standard deviation of the averaged measurements.
# Columns and labels:
# [1] = sfGFP reporter fluorescence (15 h) (µM FITC); higher = stronger transcriptional activation; settings: library round: Round 0
# Description: (§1)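 Cell-free (BL21 Star DE3 extract, PANOx-SP) biosensing: 1 µL Echo-assembled reactions with linear PbrR variant templates (5 nM) and pPbrR-sfGFP reporter, with 1 µM Pb (lead chloride), 30 µM Zn (zinc acetate) or no ligand; endpoint sfGFP fluorescence after 15 h at 30 °C, calibrated as µM FITC. Round 0 library (alanine scan, site saturation, combinatorial) of PbrR from Cupriavidus metallidurans; 2 biological replicates.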
# [2] = sfGFP reporter fluorescence (15 h) (µM FITC); higher = higher leak; settings: library round: Round 0; ligand: none
# Description: as §1
sequence,measurement,setting,value
MNIQIGELAKRTACPVVTIRFYEQEGLLPPPGRSRGNFRLYGEEHVERLQFIRHCRSLDMPLSDVRTLLSYRKRPDQDCGEVNMLLDEHIRQVESRIGALLELKHHLVELREACSGARPAQSCGILQGLSDCVCDTRGTTAHPSDA [*146A],sfGFP reporter fluorescence,[1]; ligand: 1 µM Pb,0.0918 ± 0.006
same,sfGFP reporter fluorescence,[1]; ligand: 30 µM Zn,0.671 ± 0.0096
same,sfGFP reporter fluorescence,[2],0.06121 ± 0.00052
